From article doi:10.1101/2025.09.11.675469 come the findings set out here.

Like-named read-outs stand apart in the source and are kept apart here.

Series [1] deals with T1, LIN28A (UniProt Q9H9Z2 1-209).
T1 sequence: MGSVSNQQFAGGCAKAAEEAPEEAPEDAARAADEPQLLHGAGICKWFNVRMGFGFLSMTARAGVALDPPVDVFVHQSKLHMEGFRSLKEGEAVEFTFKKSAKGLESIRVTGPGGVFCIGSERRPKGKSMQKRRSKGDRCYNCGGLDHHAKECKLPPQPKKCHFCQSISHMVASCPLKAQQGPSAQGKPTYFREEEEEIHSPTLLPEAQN
Put plainly: EMSA. (In general: A gel shift assay detects complexes by their altered migration in electrophoresis.)

For series [2], the target named is T1, LIN28A. Put plainly: EMSA. This is another data set of the same source.

B1: HOXB9 original (structured_RNA)
RNA: GGGACAAGUGGUCUGGGACAGGGAGGAGCAAC
For B1, the binding result in the series with LIN28A [1] was “binds”.

B2: HOXB9 m6A (structured_RNA)
RNA: B1 RNA
modifications: one m6A; position marked only by red colour (not recoverable from text)
With B2, the binding result with LIN28A [2] is “binds”.
